Source: patent US7176178 (HANSA MEDICAL, dated 2007)

T1: protein H (COOH-terminally truncated fragment expressed by and purified from E. coli) (Streptococcus pyogenes, UniProt P50470 42-346)
T1 construct: also called recombinant protein H; soluble protein H
T1 sequence: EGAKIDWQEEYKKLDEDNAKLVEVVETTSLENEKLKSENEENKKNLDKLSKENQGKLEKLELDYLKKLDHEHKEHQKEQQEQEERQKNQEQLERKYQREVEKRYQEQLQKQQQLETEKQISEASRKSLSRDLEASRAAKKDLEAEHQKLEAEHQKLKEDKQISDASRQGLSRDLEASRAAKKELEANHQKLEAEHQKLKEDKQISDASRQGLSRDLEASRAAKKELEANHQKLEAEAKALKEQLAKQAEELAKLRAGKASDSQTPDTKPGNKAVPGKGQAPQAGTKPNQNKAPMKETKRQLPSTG


Experiments:
[1] = molecular target: nucleophosmin/B23 (NPM), papain-released material from Jurkat membrane preparations (Mono-Q pool 85-87) (human) (UniProt P06748); assay: competitive inhibition of the binding of 125I-labelled NPM to protein H-Sepharose by unlabeled fragment AB
[2] = molecular target: T1, protein H (COOH-terminally truncated …); assay: 35S-labelled in vitro translated peptide applied to protein H-Sepharose, KSCN eluate on SDS-PAGE, autoradiography

Sequence of nucleophosmin/B23 (NPM), papain-released material from Jurkat membrane preparations (Mono-Q pool 85-87) (human) (P06748 1-149 limits assumed): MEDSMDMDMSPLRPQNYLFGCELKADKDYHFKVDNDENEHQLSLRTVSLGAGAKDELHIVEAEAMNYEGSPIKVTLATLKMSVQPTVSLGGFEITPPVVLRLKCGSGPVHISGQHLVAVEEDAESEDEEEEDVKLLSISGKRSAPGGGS

| Molecule | IC50 (read off the curve) [1] [pmol] | binding result [2] |
| --- | --- | --- |
| fragment AB of protein H (peptide) | 100 |  |
| COOH-terminal fragment of NPM, in vitro translated (domain: COOH-terminal half; also called COOH-terminal peptide; COOH-terminal half of NPM) KVPQKKVKLAADEDDDDDDEEDDDEDDDDDDFDDEEAEEKAPVKKSIRDTPAKNAQKSNQNGKDSKPSSTPRSKGQESFKKQEKTPKTPKGPSSVEDIKAKMQASIEKGGSLPKVEAKFINYVKNCFRMTDQEAIQDLWQWRKSL |  | no binding |
